Like-named read-outs stand apart in the source and are kept apart here. One block for each binder: values may come before it.
Experiments:
[1] = target: T1, human ROR1 protein (recombinant ROR1 antigen, Kactus Biosystems) (human, UniProt Q01973 30-406, limits assumed); experiment: BLI (Octet R8)
[2] = target: T2, human ROR1 expressed on cells (MDA-MB-231, Jeko-1, PA-1, HCC1187) (human, UniProt Q01973 30-937); experiment: flow cytometry on PA-1 cells
T2 construct: also called hROR1

[3] = target: T3, human ROR2 protein (hROR2, Kactus Biosystems, Cat. No. ROR-HM402) (human, UniProt Q01974 34-403, limits assumed); experiment: ELISA, plate coated with hROR2
T3 sequence (Q01974 34-403 limits assumed): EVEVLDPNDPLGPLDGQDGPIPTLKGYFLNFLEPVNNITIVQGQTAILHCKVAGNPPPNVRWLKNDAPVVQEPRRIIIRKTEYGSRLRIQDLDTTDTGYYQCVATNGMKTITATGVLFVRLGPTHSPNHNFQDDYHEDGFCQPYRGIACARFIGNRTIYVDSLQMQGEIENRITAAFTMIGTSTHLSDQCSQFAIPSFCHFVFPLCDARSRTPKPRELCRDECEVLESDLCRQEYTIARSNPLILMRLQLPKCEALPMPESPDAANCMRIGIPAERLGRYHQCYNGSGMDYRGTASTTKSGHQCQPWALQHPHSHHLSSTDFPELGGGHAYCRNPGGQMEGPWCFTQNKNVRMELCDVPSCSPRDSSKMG

[4] = target: T2, human ROR1 expressed on cells …; experiment: flow cytometry on Jeko-1 cells
[5] = target: T2, human ROR1 expressed on cells …; experiment: flow cytometry on MDA-MB-231 cells
[6] = target: T1, human ROR1 protein (recombinant ROR1 …); experiment: binding to ROR1 (column 'Binding to ROR1'; method not described)
[7] = target: T1, human ROR1 protein (recombinant ROR1 …); experiment: BLI (Octet R8), antibody captured on AHC sensor, ROR1 antigen as analyte
[8] = target: T3, human ROR2 protein (hROR2, Kactus …); experiment: ELISA, plate coated with hROR2; remark: listed apart in the source
[9] = target: T2, human ROR1 expressed on cells …; experiment: flow cytometry on Jeko-1 cells; remark: listed apart in the source
[10] = target: T2, human ROR1 expressed on cells …; experiment: flow cytometry on MDA-MB-231 cells; remark: listed apart in the source
[11] = target: T2, human ROR1 expressed on cells …; experiment: flow cytometry on MDA-MB-231 cells; remark: listed apart in the source
[12] = target: T1, human ROR1 protein (recombinant ROR1 …); experiment: binding to ROR1 (column 'Binding to ROR1'; method not described); remark: listed apart in the source
[13] = target: T1, human ROR1 protein (recombinant ROR1 …); experiment: BLI (Octet R8), antibody captured on AHC sensor, ROR1 antigen as analyte; remark: listed apart in the source
[14] = target: T1, human ROR1 protein (recombinant ROR1 …); experiment: as above; remark: listed apart in the source
[15] = target: T3, human ROR2 protein (hROR2, Kactus …); experiment: ELISA, plate coated with hROR2; remark: listed apart in the source
[16] = target: T2, human ROR1 expressed on cells …; experiment: flow cytometry on MDA-MB-231 cells; remark: listed apart in the source
[17] = target: T1, human ROR1 protein (recombinant ROR1 …); experiment: BLI (Octet R8), antibody captured on AHC sensor, ROR1 antigen as analyte; remark: listed apart in the source
[18] = target: T3, human ROR2 protein (hROR2, Kactus …); experiment: ELISA, plate coated with hROR2; remark: listed apart in the source

T2 sequence (Q01973 30-937 limits assumed): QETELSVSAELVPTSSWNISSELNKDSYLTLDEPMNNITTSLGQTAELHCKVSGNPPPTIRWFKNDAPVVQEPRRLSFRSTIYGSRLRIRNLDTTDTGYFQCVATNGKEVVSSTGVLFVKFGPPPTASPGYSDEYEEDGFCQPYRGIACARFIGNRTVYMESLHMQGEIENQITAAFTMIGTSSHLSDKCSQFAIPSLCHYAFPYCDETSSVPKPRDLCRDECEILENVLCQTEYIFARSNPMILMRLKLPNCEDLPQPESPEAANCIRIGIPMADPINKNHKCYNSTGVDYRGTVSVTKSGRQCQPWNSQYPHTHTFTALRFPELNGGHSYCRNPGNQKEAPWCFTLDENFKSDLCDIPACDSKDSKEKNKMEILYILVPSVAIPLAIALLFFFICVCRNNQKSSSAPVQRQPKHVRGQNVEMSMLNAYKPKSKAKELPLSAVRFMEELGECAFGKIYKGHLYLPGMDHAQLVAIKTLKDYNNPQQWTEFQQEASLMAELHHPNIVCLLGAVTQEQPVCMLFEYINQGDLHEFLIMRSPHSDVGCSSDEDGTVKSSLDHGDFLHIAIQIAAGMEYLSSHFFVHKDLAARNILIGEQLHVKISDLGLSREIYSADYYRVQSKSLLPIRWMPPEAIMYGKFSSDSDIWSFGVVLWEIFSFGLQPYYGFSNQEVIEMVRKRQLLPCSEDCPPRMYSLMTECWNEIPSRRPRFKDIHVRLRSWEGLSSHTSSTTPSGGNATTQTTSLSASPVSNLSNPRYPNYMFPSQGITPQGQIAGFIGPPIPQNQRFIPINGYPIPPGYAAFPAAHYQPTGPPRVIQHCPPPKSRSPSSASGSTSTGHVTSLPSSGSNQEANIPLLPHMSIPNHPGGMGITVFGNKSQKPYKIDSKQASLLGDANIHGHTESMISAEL
T1 sequence (Q01973 30-406 limits assumed): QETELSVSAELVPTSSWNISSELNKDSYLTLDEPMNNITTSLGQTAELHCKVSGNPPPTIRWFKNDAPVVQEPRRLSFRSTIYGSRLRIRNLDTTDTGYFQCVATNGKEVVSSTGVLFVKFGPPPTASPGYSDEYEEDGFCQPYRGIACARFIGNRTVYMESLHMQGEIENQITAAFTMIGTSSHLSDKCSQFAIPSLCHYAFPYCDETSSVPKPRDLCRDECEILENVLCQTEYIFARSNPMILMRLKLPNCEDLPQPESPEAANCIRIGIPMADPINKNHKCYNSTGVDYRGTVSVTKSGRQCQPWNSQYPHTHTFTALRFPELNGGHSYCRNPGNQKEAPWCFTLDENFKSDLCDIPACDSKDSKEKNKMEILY

B1: AM3-ZH3 (antibody, human IgG1, kappa, V domains shown)
VH: EVQLVESGGGLVQPGGSLRLSCAASGFTFSSYPMSWVRQAPGKGLEWVSSISTGASAYFPDSVKGRFTISRDNAKNSLYLQMNSLRAEDTAVYYCARITTSTWYMDVWGQGTTVTVSS
VL: DIQMTQSPSAMSASVGDRVTITCKASQDIYSYLSWFQQKPGKVPKTLIYRANRLVRGVPSRFSGSGSGQEYTLTISSLQPEDMATYYCLQYDEFPYTFGQGTKLEIKR
notes: human IgG1 / kappa
fold affinity against H10-hVH4-hVL4 [1]: 9 fold
EC50 [2]: 0.33 nM
MFI fold [2]: 2.5 fold
binding result [3]: no binding (tested: starting from 333.33 nM)
EC50 [4]: 0.031 nM
MFI fold [4]: 2.8 fold
EC50 [5]: 0.011 µg/mL
EC50 [6]: 0.0123 µg/mL
Kd [7]: 5 nM

B2: YR-8 (antibody, human IgG1, kappa, V domains shown)
VH: QVQLQESGPGLVKPSETLSLTCTVSGFSLTRYGVHWIRQPPGKGLEWLGVIWAGGFTNYNSDLKSRLTISKDNSKNQVSLKLSSVTAADTAVYYCARRGDSYSMKYWGQGTLVTVSS
VL: EIVLTQSPATLSLSPGERATLSCSASSQVSYIHWYQQKPGQAPRPWIYETSKLASGIPARFSGSGSGTDYTLTISSLEPEDFAVYYCQQWNYPLITFGQGTKLEIKR
binding result [8]: no binding (tested: starting from 333.33 nM)
EC50 [9]: 0.005 µg/mL
EC50 [10]: 0.02 µg/mL
EC50 [11]: 0.03 µg/mL
EC50 [12]: 0.01 µg/mL
Kd [13]: 9.82 nM
Kd [14]: 18 nM

B4: YR-11 (antibody, human IgG1, kappa, V domains shown)
VH: QVQLQESGPGLVKPSETLSLTCTVSGFSLTRYGVHWIRQPPGKGLEWIGVIWAGGFTNYNSALKSRVTISKDNSKNQVSLKLSSVTAADTAVYYCARRGNEYSMSYWGQGTLVTVSS
VL: EIVLTQSPATLSLSPGERATLSCSASSQVSYIHWYQQKPGQAPRPWIYETSKLASGIPARFSGSGSGTDYTLTISSLEPEDFAVYYCQQWNYPLITFGQGTKLEIKR
binding result [8]: binds
EC50 [9]: 0.007 µg/mL
EC50 [10]: 0.02 µg/mL
Kd [13]: 7.63 nM

B5: YR-8-ES (antibody, human IgG1, kappa, V domains shown)
VH: QVQLQESGPGLVKPSETLSLTCTVSGFSLTRYGVHWIRQPPGKGLEWLGVIWAGGFTNYESDLKSRLTISKDNSKNQVSLKLSSVTAADTAVYYCARRGDSYSMKYWGQGTLVTVSS
VL: EIVLTQSPATLSLSPGERATLSCSASSQVSYIHWYQQKPGQAPRPWIYETSKLASGIPARFSGSGSGTDYTLTISSLEPEDFAVYYCQQWNYPLITFGQGTKLEIKR
notes: YR-8 with N60E (Kabat) in the heavy chain; human IgG1 / kappa
EC50 [2]: 0.25 nM
MFI fold [2]: 2.6 fold
binding result [18]: no binding (tested: starting from 333.33 nM)
EC50 [4]: 0.15 nM
MFI fold [4]: 3.6 fold
EC50 [11]: 0.05 µg/mL
EC50 [12]: 0.01 µg/mL
Kd [14]: 19 nM

Continued, in another order:

EC50 [9]: 0.03 µg/mL
EC50 [16]: 0.0818 µg/mL
EC50 [10]: 0.09 µg/mL
Kd [17]: 32.3 nM
Kd [13]: 63.6 nM
B3: humanized antibody BRHu-3 (antibody, human IgG1, kappa, V domains shown)
VH: QVQLQESGPGLVKPSETLSLTCTVSGFSLTSYGVHWIRQPPGKGLEWLGVIWAGGFTNYNSALKSRLTISKDNSKNQVSLKLSSVTAADTAVYYCARRGSSYSMDYWGQGTLVTVSS
VL: EIVLTQSPATLSLSPGERATLSCSASSNVSYIHWYQQKPGQAPRPWIYEISKLASGIPARFSGSGSGTDYTLTISSLEPEDFAVYYCQQWNYPLITFGQGTKLEIKR
notes: humanized D10, human IgG1 / kappa
binding result [15]: no binding (tested: starting from 333.33 nM)

binding result [8]: binds
EC50 [9]: 0.01 µg/mL
EC50 [10]: 0.06 µg/mL
Kd [13]: 11.3 nM
B6: YR-10 (antibody, human IgG1, kappa, V domains shown)
VH: QVQLQESGPGLVKPSETLSLTCTVSGFSLTRYGVHWIRQPPGKGLEWIGVIWAGGFTNYNSTLKSRVTISKDNSKNQVSLKLSSVTAADTAVYYCARRGNQYSMKYWGQGTLVTVSS
VL: EIVLTQSPATLSLSPGERATLSCSASSQVSYIHWYQQKPGQAPRPWIYETSKLASGIPARFSGSGSGTDYTLTISSLEPEDFAVYYCQQWNYPLISFGQGTKLEIKR

EC50 [16]: 0.0634 µg/mL
Kd [17]: 26.6 nM
B7: chimeric antibody ch-D10 (antibody, human IgG1, kappa, V domains shown)
VH: QVQLKESGPGLVAPSQTLSITCTVSGFSLTSYGVHWVRQPPGKGLEWLGVIWAGGFTNYNSALKSRLSISKDNSKSQVLLKMTSLQTDDTAMYYCARRGSSYSMDYWGQGTSVTVSS
VL: EIVLSQSPAITAASLGQKVTITCSASSNVSYIHWYQQRSGTSPRPWIYEISKLASGVPVRFSGSGSGTSYSLTISSMEAEDAAIYYCQQWNYPLITFGSGTKLEIQR
notes: VH/VL of murine D10 on human IgG1 / kappa constant regions
binding result [15]: no binding (tested: starting from 333.33 nM)
